biological target: acetylcholine receptor (Homo sapiens, UniProt P02708); assay: SPR binding affinity (RU) of optimized 5mer/6mer/7mer peptides, Examples 6-7; conditions: 6mer-1 Top sequence; SPR; peptides tested at 10 μM
In short: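 Single-concentration screen: 10 μM peptide, SPR detection, binding expressed as RU.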

Chain of acetylcholine receptor (P02708 21-457): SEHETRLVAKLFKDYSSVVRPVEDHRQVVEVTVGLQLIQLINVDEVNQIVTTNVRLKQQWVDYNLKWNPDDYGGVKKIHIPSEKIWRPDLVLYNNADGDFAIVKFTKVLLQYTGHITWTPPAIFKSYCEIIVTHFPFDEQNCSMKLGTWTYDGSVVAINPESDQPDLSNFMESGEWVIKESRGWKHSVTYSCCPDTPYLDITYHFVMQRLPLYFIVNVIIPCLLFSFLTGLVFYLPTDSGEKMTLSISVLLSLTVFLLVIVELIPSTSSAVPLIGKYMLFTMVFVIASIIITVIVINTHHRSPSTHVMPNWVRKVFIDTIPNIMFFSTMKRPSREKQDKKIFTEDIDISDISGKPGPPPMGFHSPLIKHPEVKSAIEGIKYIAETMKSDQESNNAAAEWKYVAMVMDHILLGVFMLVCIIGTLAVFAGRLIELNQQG

Going from 6mer-1-235 (KKRYCR) to 6mer-1-306 (KKLFYR), the Binding affinity falls from 148 Ru to 135 Ru.

First: 6mer-1-309 (KKGICK)
Second: 6mer-1-383 (RKRRTK)
The Binding affinity of the first is higher: 153 Ru for the first, 148 Ru for the second.

Compared with 6mer-1-331 (RKRITR), 6mer-1-247 (KKVRQK) is lower in Binding affinity: 128 Ru for the first, 122 Ru for the second.

Going from 6mer-1-293 (RKRVCK) to 6mer-1-302 (RRGQSR), the Binding affinity falls from 154 Ru to 151 Ru.

In the case of 6mer-1-238 (KKGQQK), the Binding affinity is reported as 154 Ru.

same assay, conditions: 6mer-2 Top sequence; SPR; peptides tested at 10 μM

Compared with 6mer-2-126 (KWLYRR), 6mer-2-166 (RWLRKR) is lower in Binding affinity: 148 Ru for the first, 125 Ru for the second.

Compared with 6mer-2-19 (RSFSKK), 6mer-2-191 (RQLLKR) is higher in Binding affinity: 135 Ru for the first, 154 Ru for the second.

Compared with 6mer-2-179 (RRVYRR), 6mer-2-182 (KLFYKK) is higher in Binding affinity: 121 Ru for the first, 139 Ru for the second.

same assay, conditions: SPR, Resonance Units; 5mer Bottom sequence (bottom combinations); peptides tested at 10 μM

Going from 5mer-772 (KYWFK) to 5mer-940 (KCMGK), the Binding affinity rises from 11 Ru to 18 Ru.

Compared with 5mer-728 (KPHIK), 5mer-609 (RKTMK) is higher in Binding affinity: 19 Ru for the first, 32 Ru for the second.

Compared with 5mer-693 (RPSKK), 5mer-1060 (KTHIK) is higher in Binding affinity: 17 Ru for the first, 29 Ru for the second.

Going from 5mer-684 (KCAER) to 5mer-1003 (RMTVR), the Binding affinity falls from 27 Ru to 11 Ru.

Going from 5mer-698 (KFDWK) to 5mer-933 (RYMKK), the Binding affinity rises from 12 Ru to 27 Ru.

Going from 5mer-712 (RADFK) to 5mer-1082 (RACFR), the Binding affinity falls from 18 Ru to 11 Ru.

Substance 5mer-746 (RMTVK) has a Binding affinity of 26 Ru.

same assay, conditions: SPR, Resonance Units; peptides tested at 10 μM; 6mer-1 Bottom sequence

Compared with 6mer-1-1175 (RKTWEK), 6mer-1-1163 (RKCAFK) is lower in Binding affinity: 23 Ru for the first, 21 Ru for the second.

First: 6mer-1-1172 (RRFNFR)
Second: 6mer-1-1061 (RRISIR)
The Binding affinity of the first is lower: 23 Ru for the first, 41 Ru for the second.

First: 6mer-1-1073 (RKYMWK)
Second: 6mer-1-1064 (RKPTAK)
The Binding affinity of the first is lower: 27 Ru for the first, 41 Ru for the second.

Going from 6mer-1-1021 (KKHDIK) to 6mer-1-1173 (KKIPMK), the Binding affinity falls from 41 Ru to 26 Ru.

First: 6mer-1-1182 (KKTCHR)
Second: 6mer-1-1077 (RRKWGR)
The Binding affinity of the first is higher: 35 Ru for the first, 24 Ru for the second.

First: 6mer-1-1150 (KRKWWR)
Second: 6mer-1-1066 (RKEDVK)
The Binding affinity of the first is higher: 34 Ru for the first, 23 Ru for the second.

First: 6mer-1-1192 (RKDDDR)
Second: 6mer-1-1034 (KKASDR)
The Binding affinity of the first is higher: 36 Ru for the first, 24 Ru for the second.

Going from 6mer-1-1012 (RRAWVR) to 6mer-1-1164 (KKHHAK), the Binding affinity rises from 35 Ru to 41 Ru.

same assay, conditions: SPR, Resonance Units; peptides tested at 10 μM; 6mer-1 Bottom sequence (Table 11)

Compared with 6mer-1-648 (KKFWEK), 6mer-1-667 (KRDSPK) is higher in Binding affinity: 17 Ru for the first, 32 Ru for the second.

Going from 6mer-1-628 (RRENEK) to 6mer-1-779 (RRPDAR), the Binding affinity rises from 23 Ru to 30 Ru.

same assay, conditions: SPR, Resonance Units; peptides tested at 10 μM; 6mer-2 Bottom sequence

First: 6mer-2-983 (RTWHRR)
Second: 6mer-2-641 (REEFRR)
The Binding affinity of the first is higher: 37 Ru for the first, 12 Ru for the second.

Compared with 6mer-2-612 (RDCVRK), 6mer-2-760 (KIPVKK) is lower in Binding affinity: 17 Ru for the first, 15 Ru for the second.

Compared with 6mer-2-646 (RAAPRR), 6mer-2-719 (KIKPRR) is lower in Binding affinity: 32 Ru for the first, 29 Ru for the second.

Going from 6mer-2-854 (RCNWKR) to 6mer-2-851 (KFWWRR), the Binding affinity falls from 23 Ru to 19 Ru.

Compared with 6mer-2-889 (REWDKK), 6mer-2-891 (RTSIRK) is higher in Binding affinity: 12 Ru for the first, 28 Ru for the second.

First: 6mer-2-907 (RTMNRR)
Second: 6mer-2-673 (RFCGRK)
The Binding affinity of the first is higher: 25 Ru for the first, 23 Ru for the second.

First: 6mer-2-885 (KCMVRR)
Second: 6mer-2-604 (KEPIRK)
The Binding affinity of the first is higher: 17 Ru for the first, 16 Ru for the second.

Going from 6mer-2-675 (RMKWRK) to 6mer-2-777 (KNDVRR), the Binding affinity rises from 14 Ru to 31 Ru.

For 6mer-2-689 (RDKERR), the Binding affinity was 24 Ru.

same assay, conditions: SPR, Resonance Units; peptides tested at 10 μM; 6mer-2 Top sequence

Compared with 6mer-2-593 (RSQLKR), 6mer-2-502 (KSFCKR) is higher in Binding affinity: 139 Ru for the first, 144 Ru for the second.

First: 6mer-2-544 (KVIQKR)
Second: 6mer-2-424 (RLYCKK)
The Binding affinity of the first is higher: 147 Ru for the first, 139 Ru for the second.

First: 6mer-2-584 (KRLTRK)
Second: 6mer-2-460 (RSQCRK)
The Binding affinity of the first is higher: 148 Ru for the first, 139 Ru for the second.

First: 6mer-2-455 (RWYSKR)
Second: 6mer-2-490 (RRYQKK)
The Binding affinity of the first is lower: 135 Ru for the first, 145 Ru for the second.

Compared with 6mer-2-467 (KQYSRR), 6mer-2-449 (RGRCRR) is higher in Binding affinity: 142 Ru for the first, 154 Ru for the second.

same assay, conditions: SPR, Resonance Units; peptides tested at 10 μM; 6mer-2 Top sequence (Table 12)

Going from 6mer-2-303 (KVFTKR) to 6mer-2-373 (KLIYRK), the Binding affinity rises from 126 Ru to 139 Ru.

Going from 6mer-2-276 (RLVCRK) to 6mer-2-315 (RRQRRR), the Binding affinity falls from 153 Ru to 139 Ru.

Going from 6mer-2-370 (KSLLRR) to 6mer-2-258 (KRIYRR), the Binding affinity falls from 142 Ru to 125 Ru.

Going from 6mer-2-301 (RQVRKR) to 6mer-2-240 (RRRCRK), the Binding affinity rises from 122 Ru to 142 Ru.

First: 6mer-2-210 (RSQSRR)
Second: 6mer-2-339 (KQVYKK)
The Binding affinity of the first is lower: 128 Ru for the first, 151 Ru for the second.

same assay, conditions: SPR, peptides at 10 μM; 6mer-2 Bottom sequence

First: 6mer-2-1185 (RIDAKK)
Second: 6mer-2-1067 (RDEIRK)
The Binding affinity of the first is higher: 42 Ru for the first, 29 Ru for the second.

Compared with 6mer-2-1098 (KHPKRR), 6mer-2-1102 (KHKGKR) is higher in Binding affinity: 28 Ru for the first, 32 Ru for the second.

same assay, conditions: SPR, peptides tested at 10 μM; 5mer Top sequence

First: 5mer-26 (RQQQR)
Second: 5mer-437 (RVRLR)
The Binding affinity of the first is higher: 65 Ru for the first, 50 Ru for the second.

First: 5mer-21 (KWFTR)
Second: 5mer-141 (RWQQR)
The Binding affinity of the first is higher: 63 Ru for the first, 50 Ru for the second.

First: 5mer-435 (KLRQR)
Second: 5mer-329 (RRFCR)
The Binding affinity of the first is lower: 69 Ru for the first, 79 Ru for the second.

First: 5mer-471 (RGYLR)
Second: 5mer-327 (RVLCR)
The Binding affinity of the first is lower: 69 Ru for the first, 86 Ru for the second.

First: 5mer-158 (RWQTK)
Second: 5mer-105 (RGQQR)
The Binding affinity of the first is higher: 65 Ru for the first, 50 Ru for the second.

same assay, conditions: SPR, peptides tested at 10 μM; 5mer Top sequence (top combinations)

Compared with 5mer-564 (RSRYR), 5mer-519 (RLYSK) is lower in Binding affinity: 74 Ru for the first, 72 Ru for the second.

Compared with 5mer-237 (RGLRK), 5mer-231 (KGLLK) is lower in Binding affinity: 77 Ru for the first, 60 Ru for the second.

First: 5mer-554 (RLLSK)
Second: 5mer-600 (KLYSK)
The Binding affinity of the first is higher: 65 Ru for the first, 64 Ru for the second.

Going from 5mer-527 (KSVQR) to 5mer-244 (KSVSK), the Binding affinity rises from 70 Ru to 78 Ru.

First: 5mer-575 (KGFYR)
Second: 5mer-239 (KRLYR)
The Binding affinity of the first is higher: 69 Ru for the first, 61 Ru for the second.

Compared with 5mer-249 (RSYCR), 5mer-537 (RLRLR) is higher in Binding affinity: 52 Ru for the first, 59 Ru for the second.

same assay, conditions: SPR, peptides tested at 10 μM; 6mer-1 Bottom sequence (Table 11)

First: 6mer-1-985 (KRKSER)
Second: 6mer-1-810 (RKCNAR)
The Binding affinity of the first is higher: 22 Ru for the first, 12 Ru for the second.

First: 6mer-1-918 (RRESMR)
Second: 6mer-1-932 (KRFEFK)
The Binding affinity of the first is lower: 33 Ru for the first, 38 Ru for the second.

Going from 6mer-1-980 (RKICAK) to 6mer-1-822 (KREPIK), the Binding affinity falls from 33 Ru to 17 Ru.

Compared with 6mer-1-813 (RREDFK), 6mer-1-947 (KRTKGR) is higher in Binding affinity: 15 Ru for the first, 31 Ru for the second.

First: 6mer-1-800 (RREHIR)
Second: 6mer-1-986 (KKAEEK)
The Binding affinity of the first is lower: 15 Ru for the first, 22 Ru for the second.

6mer-1-916 (RRNAAK) and 6mer-1-912 (KKETFR) are the same in Binding affinity: 33 Ru for the first, 33 Ru for the second.

Substance 6mer-1-971 (RKIEMK) has a Binding affinity of 32 Ru.

same assay, conditions: SPR, peptides tested at 10 μM; 6mer-1 Top sequence

6mer-1-457 (RKLLCR) and 6mer-1-467 (KRGYQK) are the same in Binding affinity: 121 Ru for the first, 121 Ru for the second.

First: 6mer-1-539 (KRGIRK)
Second: 6mer-1-427 (KRWVLR)
The Binding affinity of the first is higher: 148 Ru for the first, 147 Ru for the second.

Going from 6mer-1-577 (KKQYQR) to 6mer-1-546 (RKLVQR), the Binding affinity falls from 128 Ru to 123 Ru.

Going from 6mer-1-587 (KKQLLK) to 6mer-1-493 (KRGYLR), the Binding affinity falls from 148 Ru to 131 Ru.

Work on 6mer-1-482 (RKQVRK) yielded a Binding affinity of 133 Ru.

same assay, conditions: SPR, peptides tested at 10 μM; 6mer-1 Top sequence (top combinations)

Going from 6mer-1-33 (KKSYCR) to 6mer-1-99 (RKVVYR), the Binding affinity falls from 154 Ru to 136 Ru.

Compared with 6mer-1-165 (KKWFTK), 6mer-1-64 (RKQFTK) is higher in Binding affinity: 148 Ru for the first, 154 Ru for the second.

Compared with 6mer-1-102 (RRRYRR), 6mer-1-1 (KKVISK) is lower in Binding affinity: 127 Ru for the first, 122 Ru for the second.

Going from 6mer-1-149 (RRWVCK) to 6mer-1-3 (RKRRSR), the Binding affinity rises from 131 Ru to 154 Ru.

For 6mer-1-152 (KRVIRR), the Binding affinity was 154 Ru.

same assay, conditions: SPR; XRRGVRR-7mer and RRGVRRX-7mer

For 3679 (RRGVRRD) [compound 3679], the “Binding affinity, values relative to the RRGVRR sequence” value was 61.

same assay, conditions: SPR; XRRQRR-6mer and RRQRRX-6mer

With 3618 (HRRQRR) [compound 3618] the “Binding affinity, relative value to the RRQRR sequence” value was 164.

same assay, conditions: SPR; peptides tested at 10 μM; 5mer Bottom sequence

First: 5mer-1197 (KDDAR)
Second: 5mer-814 (RITMR)
The Binding affinity of the first is higher: 24 Ru for the first, 11 Ru for the second.

Going from 5mer-1127 (RIADR) to 5mer-846 (RPDWR), the Binding affinity rises from 16 Ru to 32 Ru.

First: 5mer-1188 (KPSGK)
Second: 5mer-836 (REWNR)
The Binding affinity of the first is higher: 30 Ru for the first, 15 Ru for the second.

In the case of 5mer-857 (KMENR), the Binding affinity is reported as 23 Ru.

Reference: patent US20250011363A1, “OPTIMIZED SHORTENED PEPTIDE THAT BINDS TO ACETYLCHOLINE RECEPTOR, AND USE THEREOF” (SKINMED CO., LTD., priority 2021, published 2025)
